Laboratory results as given in patent US20210347908A1 (ELPISCIENCE SUZHOU BIOPHARMA, published 2021).

What was measured:
[1] = target: T1, 6×His tagged human SIRPα v2 ECD recombinant protein (human); experiment: SPR (Biacore)
[2] = target: T2, 6×His tagged human SIRPα v1 ECD recombinant protein (human, UniProt P78324 31-373); experiment: SPR (Biacore)
T2 construct: extracellular domain; bought; also called hSIRPα V1 (SPR antigen)

[3] = target: T3, 6×His tagged C57BL/6 mouse SIRPα ECD recombinant protein (mouse (C57BL/6), UniProt P97797 32-373); experiment: SPR (Biacore)
T3 construct: extracellular domain; bought; also called mSIRPα (C57BL/6); mouse SIRPα (C57BL/6) ECD
T3 sequence: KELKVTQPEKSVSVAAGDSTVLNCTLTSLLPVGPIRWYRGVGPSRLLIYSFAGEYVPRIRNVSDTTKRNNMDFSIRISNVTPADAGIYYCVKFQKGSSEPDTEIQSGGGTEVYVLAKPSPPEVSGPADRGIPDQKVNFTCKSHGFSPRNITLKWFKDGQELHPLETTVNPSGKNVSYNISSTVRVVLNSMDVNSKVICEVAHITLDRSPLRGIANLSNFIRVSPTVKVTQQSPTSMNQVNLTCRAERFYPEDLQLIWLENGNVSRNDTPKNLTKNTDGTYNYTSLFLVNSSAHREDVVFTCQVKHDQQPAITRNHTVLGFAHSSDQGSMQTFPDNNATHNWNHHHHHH

[4] = target: T1, 6×His tagged human SIRPα v2 ECD …; experiment: SPR (Biacore), antibody captured
Protocol: (§1) Anti-SIRPα chimeric antibodies were characterized for binding affinity against human SIRPα v1, human SIRPα v2 and C57BL/6 mouse SIRPα using Biacore (GE). Briefly the antibodies to be tested were captured to CM5 chip (GE) using Human Antibody Capture Kit (GE). The antigens of 6×His tagged human SIRPα v1, human SIRPα v2 and C57BL/6 mouse SIRPα ECD recombinant proteins were serially diluted for multiple doses and injected at 30 μl/min for 180 s. Buffer flow was maintained for dissociation of 400 s. 3 M MgCl₂ was used for chip regeneration. The association and dissociation curves were fit with 1:1 binding model, and the Ka/Kd/KD values for each antibody were calculated.

[5] = target: T2, 6×His tagged human SIRPα v1 ECD …; experiment: SPR (Biacore), antibody captured
Protocol: as §1

[6] = target: T3, 6×His tagged C57BL/6 mouse SIRPα ECD …; experiment: SPR (Biacore), antibody captured
Protocol: as §1

[7] = target: T4, biotin labeled soluble human SIRPα v1 ECD recombinant protein (human, UniProt P78324 31-373, biotin labeled); experiment: competitive ELISA, hSIRPα/CD47 blocking
T4 construct: extracellular domain
T4 sequence (P78324 31-373): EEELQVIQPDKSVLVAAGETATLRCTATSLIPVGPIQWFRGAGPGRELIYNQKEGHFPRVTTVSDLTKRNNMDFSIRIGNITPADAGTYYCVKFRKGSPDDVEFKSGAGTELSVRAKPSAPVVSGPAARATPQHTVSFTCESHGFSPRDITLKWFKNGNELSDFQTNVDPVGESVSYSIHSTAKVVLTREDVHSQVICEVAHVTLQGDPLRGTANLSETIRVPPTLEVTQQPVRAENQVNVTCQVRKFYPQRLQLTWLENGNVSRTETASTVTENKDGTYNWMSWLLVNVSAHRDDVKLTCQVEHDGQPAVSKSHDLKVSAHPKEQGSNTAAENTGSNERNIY

[8] = target: T5, full length C57BL/6 mouse SIRPα stably expressed on CHOK1 cells (mouse (C57BL/6), UniProt P97797 32-513); experiment: FACS on CHOK1-C57BL/6 mouse SIRPα-2.22 cells
T5 construct: whole, on cells; also called CHOK1-C57BL/6 mouse SIRPα-2.22 cells
T5 sequence (looked up): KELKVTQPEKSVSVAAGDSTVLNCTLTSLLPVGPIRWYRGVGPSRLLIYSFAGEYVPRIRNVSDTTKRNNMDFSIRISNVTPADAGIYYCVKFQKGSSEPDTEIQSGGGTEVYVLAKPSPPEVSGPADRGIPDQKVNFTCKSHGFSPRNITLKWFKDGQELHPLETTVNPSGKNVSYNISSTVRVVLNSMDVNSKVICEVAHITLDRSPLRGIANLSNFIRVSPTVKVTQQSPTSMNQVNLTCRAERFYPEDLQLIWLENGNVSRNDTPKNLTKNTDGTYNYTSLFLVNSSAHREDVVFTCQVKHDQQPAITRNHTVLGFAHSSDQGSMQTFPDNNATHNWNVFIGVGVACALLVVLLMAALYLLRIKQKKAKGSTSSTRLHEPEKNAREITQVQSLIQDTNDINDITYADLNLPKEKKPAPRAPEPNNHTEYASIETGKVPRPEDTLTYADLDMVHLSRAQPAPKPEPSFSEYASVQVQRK
Protocol: Species cross reactivity of the purified hybridoma antibodies against human, cyno and mouse SIRPα was determined by FACS assay using CHOK1-human SIRPα v1-1B4 cells, CHOK1-cyno SIRPα-2A2 cells, and CHOK1-C57BL/6 mouse SIRPα-2.22 cells, which stably expressing SIRPα protein. Briefly the antibodies were incubated with 2×10⁵ target cells at 4° C. for 1 hour. After washing, fluorescence labeled anti-mouse or anti-human IgG 2nd antibody (Life Technologies) was added and incubated at 4° C. for 1 hour. Geometric median fluorescence intensity was detected and EC₅₀ was calculated. In particular, it is noted, in contrast to the other antibodies tested in the same experiment, 060 cannot bind with cyno SIRPα and 035 has cross reactivity against C57BL/6 mouse SIRPα.

[9] = target: T3, 6×His tagged C57BL/6 mouse SIRPα ECD …; experiment: ELISA on coated mouse SIRPα (C57BL/6) ECD [Continued) F]
[10] = target: T1, 6×His tagged human SIRPα v2 ECD …; experiment: SPR (Biacore), antibody captured, 6×His tagged human SIRPα v2 ECD as analyte
Protocol: as §1
hu035.01, the first version of humanized 035, was characterized by FACS assay using CHOK1-human SIRPα v1-1B4 cells, ELISA assay using Fc tagged human SIRPα v2 ECD recombinant protein and SPR analysis using the antigen of 6×His tagged human SIRPα v2 ECD recombinant protein (refer to methods described in Example 3.4, Example 3.3 and Example 4.3). […] In particular, hu035.01 cannot be detected to bind with C57BL/6 mouse SIRPα ECD in ELISA assay possibly due to reduced binding activity (FIG. 5B).

[11] = target: T3, 6×His tagged C57BL/6 mouse SIRPα ECD …; experiment: ELISA on coated mouse SIRPα (C57BL/6) ECD, antibody at 10, 1 and 0.1 ug/ml [right panel mSIRPα ECD (C57BL/6]

T1 sequence (chain, as listed by the source): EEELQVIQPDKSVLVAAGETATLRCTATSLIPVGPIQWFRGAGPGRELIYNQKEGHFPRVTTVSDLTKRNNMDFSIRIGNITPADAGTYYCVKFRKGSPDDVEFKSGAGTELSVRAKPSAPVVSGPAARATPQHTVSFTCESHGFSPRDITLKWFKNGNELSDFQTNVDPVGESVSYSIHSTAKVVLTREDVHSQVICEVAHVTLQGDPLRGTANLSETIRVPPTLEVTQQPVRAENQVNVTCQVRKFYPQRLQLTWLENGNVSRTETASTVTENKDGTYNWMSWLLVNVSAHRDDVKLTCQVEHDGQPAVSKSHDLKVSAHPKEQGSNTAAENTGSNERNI
T2 sequence (P78324 other isoform, or with tags, fused parts or gaps): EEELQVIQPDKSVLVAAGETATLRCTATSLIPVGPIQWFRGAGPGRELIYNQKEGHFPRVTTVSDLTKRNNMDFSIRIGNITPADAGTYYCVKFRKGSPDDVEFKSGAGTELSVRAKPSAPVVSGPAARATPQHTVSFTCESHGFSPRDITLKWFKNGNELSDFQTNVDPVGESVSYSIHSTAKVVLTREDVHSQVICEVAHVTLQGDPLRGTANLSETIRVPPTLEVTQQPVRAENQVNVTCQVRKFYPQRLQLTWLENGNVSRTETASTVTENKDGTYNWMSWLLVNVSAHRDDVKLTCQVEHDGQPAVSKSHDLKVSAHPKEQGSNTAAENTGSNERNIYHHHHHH

B1: chimeric antibody 035c (antibody, V domains shown)
VH: QIQLVQSGPELRKPGETVKISCKASGYSFTNYAMNWVKQAPGKVLKWMGFINTYTGEPTYADDFKGRFAFSLETSASTAYLQINNLKNEDTATYFCTRTRGYYDFDGGAFDYWGQGTSLTVSS
VL: DIVMTQSQKFMSTSIGDRVSVTCKASQNVGTHLAWYQQKPGQSPKALIFSASYRYIGVPDRFTGSGSGTDFTLTITNVQSEDLAEYFCQQYNTYPLTFGAGTKLELK
A Kd [1] of 1.39 nM, a Kd [2] of 1.89 nM and a Kd [3] of 5270 nM were found for B1 in this work. For the same binder, the Kd [4] was 3.82 nM, the koff [4] was 0.000238 s⁻¹ and the kon [4] was 62100 M⁻¹ s⁻¹. The Kd [5] was 1.89 nM, the koff [5] was 0.000274 s⁻¹ and the kon [5] was 145000 M⁻¹ s⁻¹. For the same binder, the Kd [6] was 5270 nM, the koff [6] was 0.0247 s⁻¹ and the kon [6] was 4690 M⁻¹ s⁻¹. The IC50 [7] was 1.03 nM, the “EC50 (read off the curve)” value [8] was roughly 0.3 µg/mL and the “EC50 (read off the curve)” value [9] was roughly 0.3 µg/mL. For the same binder, the koff [10] was 5.73e-05 s⁻¹ and the kon [10] was 93500 M⁻¹ s⁻¹.

B2: chimeric antibody 032c (antibody, V domains shown)
VH: EVRLEESGGGLVQPGGSMKLSCVVSGFTFRNYWMNWVRQSPERGLEWIAEITLKSNTYATHYAESVKGRFAISRDDSKSSFYLQMNDLRPEDTGIYYCTTFTKVVADWHLDVWGAGTTVTVSS
VL: DVLMTQTPLSLPVNLGDQASISCRSSQNIVHSNGNTYLEWYLQKPGQSPKLLIYKVSNRFSGVPDRFSGSGSGTDFTLRISRVEAEDLGVYYCFQGSHVPFTFGSGTKLEIK
B2: no binding (tested: 10 ug/ml) [11].
